The target of the test is gp120BaL (HIV-1 group M subtype B, isolate BaL …, UniProt Q6TAP7, strain). Description: ELISA. Background: ELISA stands for enzyme-linked immunosorbent assay.

B1: PGT128 (antibody, V domains shown)
VH: QPQLQESGPTLVEASETLSLTCAVSGDSTAACNSFWGWVRQPPGKGLEWVGSLSHCASYWNRGWTYHNPSLKSRLTLALDTPKNLVFLKLNSVTAADTATYYCARFGGEVLRYTDWPKPAWVDLWGRGTLVTVSS
VL: QSALTQPPSASGSPGQSITISCTGTSNNFVSWYQQHAGKAPKLVIYDVNKRPSGVPDRFSGSKSGNTASLTVSGLQTDDEAVYYCGSLVGNWDVIFGGGTKLTVL
B1: the binding result was “binds”.

Values taken from article PMC4500839 (Nature communications, 2015).
